Among the data in article doi:10.1101/2024.01.25.576086 are HiBiT degradation assay of CDO1 in HEK293T cells with compound 8; absDC50 and KD with compound 4 values, retold here.

One test has as its target VHL-LgBiT (human) (UniProt P40337).
The target in test [1] is biotinylated pVHL-Elongin B-Elongin C complex (bio-VBC) (human) (UniProt P40337). Nature of the test: SPR.

Consider “SmBiT-CDO1 (from UniProt Q16878 1-200) (enzyme)”, for which the HiBiT degradation assay of CDO1 in HEK293T cells with compound 8; absDC50 with VHL-LgBiT (human) turned out to be 8 nM.

With “CDO1(Q99N) (from UniProt Q16878 1-200) (enzyme)”, in test [1], the KD with compound 4 was over 40 µM.
